In patent publication US20180334480A1 (RAMOT AT TEL AVIV UNIVERSITY, published 2018):

Biological target: human ACE2 protein (Angiotensin-Converting Enzyme 2) (human, UniProt Q9BYF1 18-740)
Experiment: phage-displayed construct probed with ACE2

Chain of human ACE2 protein (Angiotensin-Converting Enzyme 2) (Q9BYF1 18-740 limits assumed): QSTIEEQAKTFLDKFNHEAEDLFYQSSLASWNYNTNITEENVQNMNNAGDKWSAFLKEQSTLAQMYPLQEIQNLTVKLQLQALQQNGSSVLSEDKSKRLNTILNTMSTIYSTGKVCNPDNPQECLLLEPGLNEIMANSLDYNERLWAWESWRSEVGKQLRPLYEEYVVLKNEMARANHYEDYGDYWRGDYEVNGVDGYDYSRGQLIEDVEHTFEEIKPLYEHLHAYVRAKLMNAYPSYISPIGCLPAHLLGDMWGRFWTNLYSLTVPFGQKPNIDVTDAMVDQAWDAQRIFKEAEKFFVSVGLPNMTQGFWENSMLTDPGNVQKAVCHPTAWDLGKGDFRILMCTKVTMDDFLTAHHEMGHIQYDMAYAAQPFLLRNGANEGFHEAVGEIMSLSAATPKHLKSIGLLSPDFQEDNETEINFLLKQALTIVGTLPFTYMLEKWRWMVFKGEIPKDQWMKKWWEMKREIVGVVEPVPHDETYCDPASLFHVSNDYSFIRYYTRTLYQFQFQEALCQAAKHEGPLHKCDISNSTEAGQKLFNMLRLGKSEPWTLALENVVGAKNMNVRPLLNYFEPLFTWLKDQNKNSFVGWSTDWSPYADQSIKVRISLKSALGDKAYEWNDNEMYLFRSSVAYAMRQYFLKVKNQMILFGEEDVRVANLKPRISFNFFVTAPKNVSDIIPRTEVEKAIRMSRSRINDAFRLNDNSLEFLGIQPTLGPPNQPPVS

B1: initial SARS CoV RBM construct (residues S432-T486) displayed on fth-1 phage (other)
chain: STGNYNYKYRYLRHGKLRPFERDISNVPFSPDGKPCTPPALNCYWPLNDYGFYTT
- binding result: no binding
